B1: HDV Ribozyme (parent)
chain: GGCCGGCAUGGUCCCAGCCUCCUCGCUGGCGCCGGCUGGGCAACAUUCCGAGGGGACCGUCCCCUCGGUAAUGGCGAAUGGGACCCA

Variants of B1 are the subject of the data set. Put plainly: self-cleavage, relative activity (ratio to wild type); higher = more cleavage; co-transcriptional.
As for GGCCGGAAUGCUCCCAGCCUCCUCGCUGGCGCCGGCUGGGCAACAUUCCGAGGGGACCGUCCCCUCGGUAAUGGCGAAUGGGACCCA [C7A G11C], the self-cleavage came to 0. The same measure for GGCCGGCAUGGUCCCAGCCUCCUCGCUGGCGCCGGCUGGGCAACAUUCGGAGGGGACCGUCCCCUCCGUAAUGGCGAAUGGGACCCA [C49G G67C]: 1.22. Consider GGCCGGCAUGGUCACAGCCUCCUCGCUGGCGCCGGCUGGGCAACAUUCCGAGGGGACCGUCCCCUCGGUAAUGGCUAAUGGGACCCA [C14A G76U], for which the self-cleavage came out at 1.27. Regarding GGCCGGCAUGGUCCCAACCUCCUCGCUGGCGCCGGCUGGGCAACAUUCCGAGGGGACCGUCCCAUCGGUAAUGGCGAAUGGGACCCA [G17A C64A], the self-cleavage was found to be 0.645. Next, GGCCGGCAUGGUCCCAGCCUCCUCGCUGGCGCCGGCUGGGCAACAUUCCGAGGGGACUGUCCCCUCGGUAAUGGCGCAUGGGACCCA [C58U A77C]: 0.489. For the variant GGCCGGCAUGGUCCCAGCCUCCUCGAUGGCCCCGGCUGGGCAACAUUCCGAGGGGACCGUCCCCUCGGUAAUGGCGAAUGGGACCCA [C26A G31C], the self-cleavage stood at 0.453. Next, GGCCGGCAUAGUCCCAGCCUCCUCGCUGGCGCCGGCUGGGCAACAUUCCGAGGGGACCUUCCCCUCGGUAAUGGCGAAUGGGACCCA [G10A G59U]: 0.95.

In the case of GGCCGGCAUGGUCCCAGCCUCCUCGCUGGCGCCGGCUGGGCAACAUUCCGAGGGGAUCGUCCCCUCGGUAAUGGCGAAUGGGACCAA [C57U C86A], the self-cleavage turned out to be 0.882.

Regarding GGCCGGCAUGGACCCAGCCUCCUCGCUGGCGCCGGCUGGGCAACAUUCCGAGGGGACCGUCCCCUCGGCAAUGGCGAAUGGGACCCA [U12A U69C], the self-cleavage was 0.35. Next, GGCCGGCAUGGUCCCAGCCUCCUCGCUGGCGCCGGCUGGGCAACAUUCCGAGGGGACCGUCCCAUCGGUAAUGGUGAAUGGGACCCA [C64A C75U]: 0.332; GGCCGGCAUGGUCCCAGCCUCCUCGCUGGCGCCGGCUGGGCAACAUUCCGAGGGCACCGACCCCUCGGUAAUGGCGAAUGGGACCCA [G55C U60A]: 1.05. Next, GGCCGGCAUGGUCCCAGCCUCCUCGCUGGCGCCGGCUGGGGAACAUUCCGAGGGGACCGUCCCCUCGGUAAUGGCGAAUGGGACCCC [C41G A87C]: 0.65; GGCCGGCGUGGUCCCAGCCUCCUCGCUGGCGCCGGCUGGGCAACAUUCCGAGGGGACCGUCCCCUUGGUAAUGGCGAAUGGGACCCA [A8G C66U]: 1.14. The same measure for GGCCGGCAUGGUCCCAGCCUCCUCGCUGGCGCCGACUGGGCAACAUUCCGGGGGGACCGUCCCCUCGGUAAUGGCGAAUGGGACCCA [G35A A51G]: 0.673; for GGACGGCAUGGUCCCAGCCUCCUCGCUGGCGCCGGCUGGGCAACAUUCCGAGGGGACCGUCCCCUCGGUAAUGGCGAGUGGGACCCA [C3A A78G]: 0.119; for GGCCGGCAUGGUCUCAGCCUCCUCGCUGGCGCCGGCUGGGCAACAUUCCGAGGGGACCGUCCCGUCGGUAAUGGCGAAUGGGACCCA [C14U C64G]: 1.24.

As to GGCCGGCAUGGUCCCAGCCUCCUCGCUGGAGCCGACUGGGCAACAUUCCGAGGGGACCGUCCCCUCGGUAAUGGCGAAUGGGACCCA [C30A G35A], the self-cleavage was determined as 0.244. The same measure for GGCCGGCAUGGUCCCAGCCUCCUCGCUGGCGCCGGCUGGGCAACAUUCCGACGGGACCGUCCCCUCGGUUAUGGCGAAUGGGACCCA [G52C A70U]: 0.782; for GGCCGGCAUCGUCCCAGCCUCCUCGCUGGCGCCGGCUGGGCAACAUUCCGAGGGGACCGUCCCCUCGGUAAUGGCGACUGGGACCCA [G10C A78C]: 0.185; for GGCCGGCAUGGUCCCAGCCUCCUCGCUGGCGCCGGCUGGCCAACAUUCCGAGGGGACCGUCCCCUCGCUAAUGGCGAAUGGGACCCA [G40C G68C]: 0.177. Next, GGCCGGCAUGGUCCCAGACUCCUCGCUGGCGCCGGCUGGGCAACAUUCCGCGGGGACCGUCCCCUCGGUAAUGGCGAAUGGGACCCA [C18A A51C]: 0.0755; GGCCGGCAUGGUCCCAGCCUCCUCGCUGGCGACGGCUGGGCAACAUUCCGAGGGGACCGUCCCCUCGGUAAUGGCGGAUGGGACCCA [C32A A77G]: 0.0426. On to GGCCGGCAUCGUCCCAGCCUCCUCGCUGGCGCCGGCUGGGCAACAUUCCGAGGGGACCGUCCCCUCGGUAAUGGCGAAUGGGACUCA [G10C C85U], for which the self-cleavage is 1.07. Next, GGCCGGCAUGGUGCCAGCCUGCUCGCUGGCGCCGGCUGGGCAACAUUCCGAGGGGACCGUCCCCUCGGUAAUGGCGAAUGGGACCCA [C13G C21G]: 0.0723. Next, GGCCGGCAUGGUCCCAGCCUCCUCGCUGGCGCCAGCUGGGCAACAUUCCGAGGGGACAGUCCCCUCGGUAAUGGCGAAUGGGACCCA [G34A C58A]: 0.203; GGCCGGCAUGGUGCCAGCCUCCUCGCUGGCGCCGGCUGGGCAACAUUCCGAGGGGACCGUCCCCCCGGUAAUGGCGAAUGGGACCCA [C13G U65C]: 0.095; GGCCGGCAUGGUCCCAGCCUCCUCGCUGGCGACGGCUGGGCAACAUUCCGAAGGGACCGUCCCCUCGGUAAUGGCGAAUGGGACCCA [C32A G52A]: 0.302.

For GGCCGGCAUGGUCCCAGCCUCCUCACUGGCGCCGGCUGGGCAACAUUCCGAGGGGACCGUCCCUUCGGUAAUGGCGAAUGGGACCCA [G25A C64U], the self-cleavage came to 0.204. Next, GGCCGGCAUGGUCCCAGCCUCCUCGCUGGCGCCGGCUGGGCAACAUUCCGAGGGGACCGUCCCCUCGGUAAUGGCGAGUGGAACCCA [A78G G82A]: 0.365; GGCCGGCAUGGUCCCAGCCUCUUCGCUGGCGCUGGCUGGGCAACAUUCCGAGGGGACCGUCCCCUCGGUAAUGGCGAAUGGGACCCA [C22U C33U]: 0.533; GGCCGGCAUGGUCCCAGCAUCCUCGCUGGCGCCGGCUGGGCAACAUUCCGAGGGGACCGUCCCCUCGGCAAUGGCGAAUGGGACCCA [C19A U69C]: 0.146. Next, GGCCGGCAUGGUCCCAGCCUCCUCUCUAGCGCCGGCUGGGCAACAUUCCGAGGGGACCGUCCCCUCGGUAAUGGCGAAUGGGACCCA [G25U G28A]: 0.
